In patent US20230287082A1 (published 2023):
Positions count from the first letter of the chain named. Each block holds one binder with its values, some of them ahead of it.

Assays:
[1] = molecular target: NKp30 on human NK cells (human) (UniProt O14931); assay: cell-based or functional assay
human NKp30 (human) [2] = molecular target: human NKp30 (human) (UniProt O14931); assay: BLI, ratio to ΔB7-H6_wt
human NKp30 (human) [3] = molecular target: human NKp30 (human) (UniProt O14931); assay: BLI, immunoligand on anti-hFc tip

human NKp30 (human), sequence (O14931 19-135 limits assumed): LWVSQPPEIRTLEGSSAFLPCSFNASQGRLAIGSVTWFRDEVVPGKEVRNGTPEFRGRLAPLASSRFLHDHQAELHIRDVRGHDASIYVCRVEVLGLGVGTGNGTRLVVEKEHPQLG
NKp30 on human NK cells (human), sequence (O14931 19-201): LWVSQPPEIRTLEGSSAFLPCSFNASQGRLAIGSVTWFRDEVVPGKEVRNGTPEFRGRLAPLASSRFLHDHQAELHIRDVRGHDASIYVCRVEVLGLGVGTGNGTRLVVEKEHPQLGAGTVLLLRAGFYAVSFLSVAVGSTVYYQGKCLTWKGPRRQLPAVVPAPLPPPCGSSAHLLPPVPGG

B2: ΔB7-H6_S2#2-SEED-PGLALA (bispecific antibody, part only; not given: SEED Fc chains and hu225 Fab, part only)
chain, part: DLKVEMMAGGTQITPLNDNVTIFCNIFYSQPLNITSMGITWFWKSLTFDKEVKVFEFWDDHQEAFRPGAIVSPWRLKSGDASLRLPGIQLEEAGEYRCEVVVTPYKAQGTVQLEVVASPAS
EC50 (pM), A431 lysis with PBMC [1]: 169 pM
EC50 improvement compared to ΔB7-H6 wt [1]: 5 fold
KD improvement compared to ΔB7-H6 wt (human NKp30 (human) [2]): 1.9 fold
x-fold KD improvement (human NKp30 (human) [2]): 1.9 fold
x-fold Koff improvement (human NKp30 (human) [2]): 2.3 fold
Kd (human NKp30 (human) [3]): 217 nM
koff (human NKp30 (human) [3]): 0.0737 s⁻¹
kon (human NKp30 (human) [3]): 340000 M⁻¹ s⁻¹

B4: ΔB7-H6_S3#23-SEED-PGLALA (bispecific antibody, part only; not given: SEED Fc chains and hu225 Fab, part only)
chain, part: B2 chain, part with S36E, W58Y, D59G
EC50 (pM), A431 lysis with PBMC [1]: 78 pM
EC50 improvement compared to ΔB7-H6 wt [1]: 11 fold
KD improvement compared to ΔB7-H6 wt (human NKp30 (human) [2]): 3.7 fold
x-fold KD improvement (human NKp30 (human) [2]): 3.7 fold
x-fold Koff improvement (human NKp30 (human) [2]): 3.2 fold
Kd (human NKp30 (human) [3]): 110 nM
koff (human NKp30 (human) [3]): 0.0525 s⁻¹
kon (human NKp30 (human) [3]): 479000 M⁻¹ s⁻¹

B6: ΔB7-H6_S2#7-SEED-PGLALA (bispecific antibody, part only; not given: SEED Fc chains and hu225 Fab, part only)
chain, part: B2 chain, part with W58Y, D59G, V101I, A117T
EC50 (pM), A431 lysis with PBMC [1]: 170 pM
EC50 improvement compared to ΔB7-H6 wt [1]: 5 fold
KD improvement compared to ΔB7-H6 wt (human NKp30 (human) [2]): 2.1 fold
x-fold KD improvement (human NKp30 (human) [2]): 2.1 fold
x-fold Koff improvement (human NKp30 (human) [2]): 1.7 fold
Kd (human NKp30 (human) [3]): 191 nM
koff (human NKp30 (human) [3]): 0.0964 s⁻¹
kon (human NKp30 (human) [3]): 504000 M⁻¹ s⁻¹

B8: ΔB7-H6_S3#26-SEED-PGLALA (bispecific antibody, part only; not given: SEED Fc chains and hu225 Fab, part only)
chain, part: B2 chain, part with S36T
EC50 (pM), A431 lysis with PBMC [1]: 22.7 pM
EC50 improvement compared to ΔB7-H6 wt [1]: 38 fold
KD improvement compared to ΔB7-H6 wt (human NKp30 (human) [2]): 3.6 fold
x-fold KD improvement (human NKp30 (human) [2]): 3.6 fold
x-fold Koff improvement (human NKp30 (human) [2]): 3.6 fold
Kd (human NKp30 (human) [3]): 113 nM
koff (human NKp30 (human) [3]): 0.0464 s⁻¹
kon (human NKp30 (human) [3]): 409000 M⁻¹ s⁻¹

B9: ΔB7-H6_S3#12-SEED-PGLALA (bispecific antibody, part only; not given: SEED Fc chains and hu225 Fab, part only)
chain, part: B2 chain, part with S36E, W58F, D59G
EC50 (pM), A431 lysis with PBMC [1]: 165 pM
EC50 improvement compared to ΔB7-H6 wt [1]: 5 fold
KD improvement compared to ΔB7-H6 wt (human NKp30 (human) [2]): 3.2 fold
x-fold KD improvement (human NKp30 (human) [2]): 3.2 fold
x-fold Koff improvement (human NKp30 (human) [2]): 1.9 fold
Kd (human NKp30 (human) [3]): 129 nM
koff (human NKp30 (human) [3]): 0.0865 s⁻¹
kon (human NKp30 (human) [3]): 671000 M⁻¹ s⁻¹

B11: ΔB7-H6_S3#28-SEED-PGLALA (bispecific antibody, part only; not given: SEED Fc chains and hu225 EGFR Fab, part only)
chain, part: B2 chain, part with S36H, D59G, Y105L
EC50 (pM), A431 lysis with PBMC [1]: 114 pM
EC50 improvement compared to ΔB7-H6 wt [1]: 8 fold
KD improvement compared to ΔB7-H6 wt (human NKp30 (human) [2]): 0.9 fold
x-fold KD improvement (human NKp30 (human) [2]): 0.9 fold
x-fold Koff improvement (human NKp30 (human) [2]): 1.2 fold
Kd (human NKp30 (human) [3]): 443 nM
koff (human NKp30 (human) [3]): 0.136 s⁻¹
kon (human NKp30 (human) [3]): 306000 M⁻¹ s⁻¹

Stronger by Kd (human NKp30 (human) [3]), values ahead:

A431 EC50 with NK cells (pM) [1]: 3.55 pM
A431 EC50 with PBMC (pM) [1]: 39.7 pM
A549 EC50 with NK cells (pM) [1]: 35.2 pM
A549 EC50 with PBMC (pM) [1]: 108 pM
EC50 (pM), A431 lysis with PBMC [1]: 9.3 pM
EC50 improvement compared to ΔB7-H6 wt [1]: 93 fold
KD improvement compared to ΔB7-H6 wt (human NKp30 (human) [2]): 27.4 fold
x-fold KD improvement (human NKp30 (human) [2]): 27.5 fold
x-fold Koff improvement (human NKp30 (human) [2]): 16.1 fold
Kd (human NKp30 (human) [3]): 14.9 nM
koff (human NKp30 (human) [3]): 0.0104 s⁻¹
kon (human NKp30 (human) [3]): 702000 M⁻¹ s⁻¹
B1: ΔB7-H6_S3#24-SEED-PGLALA (bispecific antibody, part only; not given: SEED Fc chains and hu225 Fab, part only)
chain, part: B2 chain, part with S36I, W58Y, D59G

EC50 (pM), A431 lysis with PBMC [1]: 110 pM
EC50 improvement compared to ΔB7-H6 wt [1]: 8 fold
KD improvement compared to ΔB7-H6 wt (human NKp30 (human) [2]): 3.9 fold
x-fold KD improvement (human NKp30 (human) [2]): 3.9 fold
x-fold Koff improvement (human NKp30 (human) [2]): 1.5 fold
Kd (human NKp30 (human) [3]): 104 nM
koff (human NKp30 (human) [3]): 0.109 s⁻¹
kon (human NKp30 (human) [3]): 1.05e+06 M⁻¹ s⁻¹
B3: ΔB7-H6_S3#3-SEED-PGLALA (bispecific antibody, part only; not given: SEED Fc chains and hu225 Fab, part only)
chain, part: B2 chain, part with S36H, W58F, D59G, V101F

EC50 (pM), A431 lysis with PBMC [1]: 106 pM
EC50 improvement compared to ΔB7-H6 wt [1]: 8 fold
KD improvement compared to ΔB7-H6 wt (human NKp30 (human) [2]): 4.3 fold
x-fold KD improvement (human NKp30 (human) [2]): 4.3 fold
x-fold Koff improvement (human NKp30 (human) [2]): 3.8 fold
Kd (human NKp30 (human) [3]): 95.2 nM
koff (human NKp30 (human) [3]): 0.0441 s⁻¹
kon (human NKp30 (human) [3]): 463000 M⁻¹ s⁻¹
B5: ΔB7-H6_S3#22-SEED-PGLALA (bispecific antibody, part only; not given: SEED Fc chains and hu225 Fab, part only)
chain, part: B2 chain, part with S36E, D59G

EC50 (pM), A431 lysis with PBMC [1]: 64 pM
EC50 improvement compared to ΔB7-H6 wt [1]: 14 fold
KD improvement compared to ΔB7-H6 wt (human NKp30 (human) [2]): 7.1 fold
x-fold KD improvement (human NKp30 (human) [2]): 7.1 fold
x-fold Koff improvement (human NKp30 (human) [2]): 3 fold
Kd (human NKp30 (human) [3]): 57.8 nM
koff (human NKp30 (human) [3]): 0.056 s⁻¹
kon (human NKp30 (human) [3]): 970000 M⁻¹ s⁻¹
B7: ΔB7-H6_S3#9-SEED-PGLALA (bispecific antibody, part only; not given: SEED Fc chains and hu225 EGFR Fab, part only)
chain, part: B2 chain, part with S36H, W58F, D59G

EC50 (pM), A431 lysis with PBMC [1]: 40.8 pM
EC50 improvement compared to ΔB7-H6 wt [1]: 21 fold
KD improvement compared to ΔB7-H6 wt (human NKp30 (human) [2]): 12.4 fold
x-fold KD improvement (human NKp30 (human) [2]): 12.4 fold
x-fold Koff improvement (human NKp30 (human) [2]): 6.9 fold
Kd (human NKp30 (human) [3]): 33.1 nM
koff (human NKp30 (human) [3]): 0.0244 s⁻¹
kon (human NKp30 (human) [3]): 737000 M⁻¹ s⁻¹
B10: ΔB7-H6_S3#6-SEED-PGLALA (bispecific antibody, part only; not given: SEED Fc chains and hu225 Fab, part only)
chain, part: B2 chain, part with S36H, D59G

EC50 (pM), A431 lysis with PBMC [1]: 54.7 pM
EC50 improvement compared to ΔB7-H6 wt [1]: 16 fold
KD improvement compared to ΔB7-H6 wt (human NKp30 (human) [2]): 18.2 fold
x-fold KD improvement (human NKp30 (human) [2]): 18.2 fold
x-fold Koff improvement (human NKp30 (human) [2]): 9.3 fold
Kd (human NKp30 (human) [3]): 22.5 nM
koff (human NKp30 (human) [3]): 0.018 s⁻¹
kon (human NKp30 (human) [3]): 799000 M⁻¹ s⁻¹
B12: ΔB7-H6_S3#5-SEED-PGLALA (bispecific antibody, part only; not given: SEED Fc chains and hu225 Fab, part only)
chain, part: B2 chain, part with S36V, D59G
